Data taken from patent US5639868, “High-affinity RNA ligands for basic fibroblast growth factor” (NeXstar Pharmaceuticals, Inc.).

B1: 5A (ssRNA)
RNA: GGGAGCUCAGAAUAAACGCUCAAAUCUCCUCCCGUCGAAGCUAACCUGGCCACUUCGACAUGAGGCCCGGAUCCGGC
B2: 12A (ssRNA)
RNA: GGGAGCUCAGAAUAAACGCUCAAGGGGCAACGCUACAGACAAGUGCACCCAACUUCGACAUGAGGCCCGGAUCCGGC
B3: 2'-NH2 38B (ssRNA)
RNA: GGGAGGACGAUGCGGGCUGCGGUGCGCAUGUGUGGAAGACAGAGGGAGGUUAGAAUCGUGCCGCCAGACGACUCGCCCGA
modifications: 2'-NH2 at all C and U
B4: 7A (ssRNA)
RNA: GGGAGCUCAGAAUAAACGCUCAAUCGGCGAGCUAACCAAGACACUCGCUGCACUUCGACAUGAGGCCCGGAUCCGGC
B5: 26A (ssRNA)
RNA: GGGAGCUCAGAAUAAACGCUCAACGUCAGAAGGCAACGUAUAGGCAAGCACACUUCGACAUGAGGCCCGGAUCCGGC

How the values were obtained:
[1] = biological target: T1, basic fibroblast growth factor (bFGF, FGF-2) (UniProt P09038 P09038:135-288); assay: inhibition; 125I-bFGF binding to high-affinity receptor, BHK cells, 4 C; conditions: tags: Bachem California; 18 kDa, 154 amino acids; label: 125I
Experimental: Receptor Binding Studies. bFGF was labeled with ^125I by the Iodo-Gen (Pierce) procedure as described by Moscatelli (1987) supra. […] The amount of 125I-bFGF bound to the low- and the high-affinity receptor sites was determined as described by Moscatelli (1987) supra.

[2] = biological target: T1, basic fibroblast growth factor (bFGF, …); assay: filter; binding curve in figure only; PBS, 0.01% HSA, 1 mM DTT, 37 C; conditions: tags: Bachem California; 18 kDa, 154 amino acids
Experimental: Binding curves for modified RNA ligands 21A, 38B and random RNAs were determined (FIG. 8). RNA concentrations were determined from their absorbance reading at 260 nm and were typically less than 100 pM. Binding reactions were conducted at 37° C. in phosphate buffered saline containing 0.01% human serum albumin and 1 mM DTT. Heparin competitively displaced RNA ligands from both sequence families (FIG. 3), although higher concentrations of heparin were required to displace members of family 2 from bFGF.
(§1) This affinity screening allowed identification of those ligands with highest affinity for bFGF. Binding of a group of these ligands was analyzed over a range of bFGF concentrations (FIG. 8) and their dissociation constants (Kd's) were determined as described (Jellinek et al. (1993) Proc. Natl. Acad. Sci. U.S.A. 90:11227–11231) (Table IX). RNA concentrations were determined from their absorbance reading at […] (and were typically <100 pM). Binding reactions were done at 37° C. in phosphate buffered saline containing 0.01% human serum albumin and 1 mM DTT.

[3] = biological target: T1, basic fibroblast growth factor (bFGF, …); assay: filter; biphasic, Kd1 (mole fraction 0.5); Kd2 = 270 nM; conditions: tags: Bachem California; 18 kDa, 154 amino acids
Experimental: as §1
(§2) The minimal sequence information required for high-affinity binding to bFGF was examined for several of the 2'-NH_2 modified ligands by deletion analyses as described (Tuerk et al. (1990) J. Mol. Biol. 213:749–761).

[4] = biological target: T1, basic fibroblast growth factor (bFGF, …); assay: filter; biphasic, Kd1 (mole fraction 0.5); Kd2 = 180 nM; conditions: tags: Bachem California; 18 kDa, 154 amino acids
Experimental: as §1, §2

[5] = biological target: T1, basic fibroblast growth factor (bFGF, …); assay: filter; monophasic; conditions: tags: Bachem California; 18 kDa, 154 amino acids
Experimental: as §1, §2

T1 sequence (P09038 135-288, one chain of several): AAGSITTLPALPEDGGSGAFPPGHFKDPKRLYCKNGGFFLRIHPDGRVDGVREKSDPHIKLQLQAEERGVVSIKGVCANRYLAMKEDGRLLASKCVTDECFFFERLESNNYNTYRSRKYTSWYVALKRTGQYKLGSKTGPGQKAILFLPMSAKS

Binder | IC50 [1] [nM] | other results
B1 | ~1000 | –
B2 | > 1000 | –
B3 | – | binding result [2]: binds
B4 | ~1000 | –
GGUGUGUGGAAGACAGCGGGUGGUUC (ssRNA, 2'-NH2 at all C and U) [2'-NH2 21A-t] | – | Kd [3]: 0.1 nM
B5 | ~1000 | –
GGACGGCGUGGUCCGAGGGUGGCGAGU (ssRNA, 2'-NH2 at all C and U) [2'-NH2 58A-t] | – | Kd [4]: 1.8 nM
GGAGGACGAUGCGGAACGGGAGGUACGAGAGCGGGAGC (ssRNA, 2'-NH2 at all C and U) [2'-NH2 34B-t] | – | Kd [5]: 3 nM
